The source of these data is patent publication US20210040181A1 (Bristol-Myers Squibb, published 2021).

The chains are these.
B1: 679F03 (designed binder)
chain: VSDVPRDLEVVAATPTSLLISWYHYYSGSQRYYRITYGETGGNSPVQEFTVPHEVYTATISGLKPGVDYTITVYAVTDYAYKEYEEYPISINYRT
notes: 10Fn3-based clone expressed in E. coli as His6 tagged protein; not shown: His6 tag
B2: 867F10 (designed binder)
chain: VSDVPRDLEVVAATPTSLLISWHNTYKDYRYYRITYGETGGNSPVQEFTVPHMAYNTATISGLKPGVDYTITVYAVTVTMQALLYSIPISINYRT
notes: as for B1
B3: 867H08 (designed binder)
chain: VSDVPRDLEVVAATPTSLLISWLRVPAYDRYYRITYGETGGNSPVQEFTVPDVPWTATISGLKPGVDYTITVYAVTLDESDMRVGVPISINYRT
notes: as for B1
B4: 679G06 (designed binder)
chain: VSDVPRDLEVVAATPTSLLISWYSDYYDNRYYRITYGETGGNSPVQEFTVPRYMMTATISGLKPGVDYTITVYAVTYSYHDPNPMMPISINYRT
notes: as for B1
B5: 867B08 (designed binder)
chain: VSDVPRDLEVVAATPTSLLISWSGSYKSYRYYRITYGETGGNSPVQEFTVPHYDHATATISGLKPGVDYTITVYAVTVDYTAVQVSYPISINYRT
notes: as for B1
B6: 679A05 (designed binder)
chain: VSDVPRDLEVVAATPTSLLISWARYAECGRYYRITYGETGGNSPVQEFTVPDVPWTATISGLKPGVDYTITVYAVTLGKPPLPGWVSGLDPISINYRT
notes: as for B1
B7: 867E05 (designed binder)
chain: VSDVPRDLEVVAATPTSLLISWNRHAMASRYYRITYGETGGNSPVQEFTVPDVPFTATISGLKPGVDYTITVYAVTMSDKAMDMRTPSIGPISINYRT
notes: as for B1
B8: 679A01 (designed binder)
chain: VSDVPRDLEVVAATPTSLLISWARYAGSDRYYRITYGETGGNSPVQEFTVPDVPFTATISGLKPGVDYTITVYAVTMGHAPTVDIHWTPSPISINYRT
notes: as for B1
B9: 867A03 (designed binder)
chain: VSDVPRDLEVVAATPTSLLISWTYRHYPERYYRITYGETGGNSPVQEFTVPDPDSTATISGLKPGVDYTITVYAVTYNHSSTPISINYRT
notes: as for B1
B10: 867A05 (designed binder)
chain: B9 chain with T23Y, H26K, E29G, P53E, D54H, S55T, N78D, H79S, S80P, T82Q
notes: as for B1
B11: 867C07 (designed binder)
chain: VSDVPRDLEVVAATPTSLLISWHSNYVDYRYYRITYGETGGNSPVQEFTVPHISDITATISGLKPGVDYTITVYAVTVEDMVRESYPPISINYRT
notes: as for B1
B12: 867E02 (designed binder)
chain: VSDVPRDLEVVAATPTSLLISWIRRAKPGRYYRITYGETGGNSPVQEFTVPDVPWTATISGLKPGVDYTITVYAVTLDGVRRVGYLDHPISINYRT
notes: as for B1
B13: 679B01 (designed binder)
chain: VSDVPRDLEVVAATPTSLLISWLLLGAPCRYYRITYGETGGNSPVQEFTVPWMGLTATISGLKPGVDYTITVYAVTSERAPCVKVWRCPISINYRT
notes: as for B1
B14: 679C10 (designed binder)
chain: VSDVPRDLEVVAATPTSLLISWSRYAPGGRYYRITYGETGGNSPVQEFTVPDVPWTATISGLKPGVDYTITVYAVTLSNYEYLARNPISINYRT
notes: as for B1
B15: 867A01 (designed binder)
chain: VSDVPRDLEVVAATPTSLLISWQQQHTNYRYYRITYGETGGNSPVQEFTVPGRASTATISGLKPGVDYTITVYAVTEHPYYGDPPISINYRT
notes: as for B1
B16: 679B10 (designed binder)
chain: VSDVPRDLEVVAATPTSLLISWRLTAPLGRYYRITYGETGGNSPVQEFTVPDIPFTATISGLKPGVDYTITVYAVTLSDSAHGGLRDVPISINYRT
notes: as for B1
B17: 867C04 (designed binder)
chain: VSDVPRDLEVVAATPTSLLISWESKYVNYRYYRITYGETGGNSPVQEFTVPHLMTATISGLKPGVDYTITVYAVTVGGDHMYSSLPISINYRT
notes: as for B1
B18: 679A10 (designed binder)
chain: VSDVPRDLEVVAATPTSLLISWDRMLSFLRYYRITYGETGGNSPVQEFTVPLIYPTATISGLKPGVDYTITVYAVTVQLLDQCLRIHGPISINYRT
notes: as for B1
B19: 867B09 (designed binder)
chain: VSDVPRDLEVVAATPTSLLISWYLSHSYMRYYRITYGETGGNSPVQEFTVPVIHYTATISGLKPGVDYTITVYAVTSDKISVTVSGPISINYRT
notes: as for B1
B20: 867B10 (designed binder)
chain: VSDVPRDLEVVAATPTSLLISWKSVYVDYRYYRITYGETGGNSPVQEFTVPHSNLTATISGLKPGVDYTITVYAVTVYESYVANDSPISINYRT
notes: as for B1
B21: 679B09 (designed binder)
chain: VSDVPRDLEVVAATPTSLLISWMRWYAPRRYYRITYGETGGNSPVQEFTVPFWQGTATISGLKPGVDYTITVYAVTRGQSGLGMPISINYRT
notes: as for B1

Residue numbers refer to the chain shown, from its start.

The first assay has as its target T1, EGFR on the surface of human A431 cells (human, UniProt P00533 25-1210).
T1 construct: whole, on cells; also called HER-1; EGF receptor on cells
Briefly: competition with 10 nM Eu-EGF on A431 cells, time resolved fluorescence; Midscale preparation. As for the experimental part: (§1) Human epithelial carcinoma cells, clone A431, which express large numbers of EGFRs on the cell surface, are plated into 96 well tissue culture plates and allowed to adhere for 48 hours. The cells are washed with serum free media and dilutions of the selected clones are incubated with the cells for 15 minutes, 37° C. in a humidified incubator in 5% CO₂. This incubation allows binding of the clone to the EGFR on the cell surface.
In turn, B1 returned an IC50 of 26.8 nM.

A further assay concerns the target EGFR 525-Fc (human) (UniProt P00533). Briefly: direct binding ELISA, single point; clone captured by anti-His, 50 nM receptor-Fc, anti-human Fc HRP.
Regarding “SGE control (10FN3 domain of SEQ ID NO: 1 with RGD substituted with SGE) (designed binder)”, the A450 was found to be 0.139 A450.
Same read-out and setting: then B2, with 2.32 A450.
The molecule B3 showed an A450 of 1.79 A450.
Same read-out and setting: then B4, with 0.128 A450; and B5, with 2.49 A450.
As for B6, the A450 was 1.72 A450.
On the same count and under the same terms, then B7, with 1.68 A450; and B8, with 1.53 A450.
The same measure, in the same setting: then B9, with 1.85 A450; and B10, with 1.61 A450.
For B11, the A450 turned out to be 2.18 A450.
Still for that read-out and setting: then B12, with 1.43 A450; and B1, with 2.45 A450.
Same read-out and setting: under B13 stands 0.539 A450; under B14, 0.803 A450; under B15, 0.137 A450.
The same measure, in the same setting: under B16 stands 1.74 A450; under B17, 1.57 A450.
B18 returned an A450 of 0.925 A450.
In the case of B19, the A450 is 2.41 A450.
B20 had an A450 of 2.55 A450.
Regarding B21, the A450 was 0.375 A450.

A further assay deals with EGFR-Fc (R&D Systems), ectodomain of human EGFR as a Fc fusion (human) (UniProt P00533). The assay is described as above.
In the case of “SGE control (10FN3 domain of SEQ ID NO: 1 with RGD substituted with SGE) (designed binder)”, the A450 stood at 0.143 A450.

A further assay addresses T2, EGFR-Fc (R&D Systems), ectodomain of human EGFR as a Fc fusion (human, UniProt P00533 25-645).
T2 construct: extracellular domain; Bought from R&D Systems; also called EGFR-FL-Fc; full length EGFR Fc fusion protein; not shown: Fc of the purchased fusion
Described as above. On the procedure: Proteins encoded by independent clones were analyzed for binding to the full length ectodomain of EGFR as well as a truncated version containing the first 525 amino acids (EGFR 525) of the EGFR ectodomain in single point direct binding assays. Anti-His antibodies were used to capture protein clones in an oriented fashion followed by incubation with full length EGFR or EGFR 525 Fc fusion proteins. Bound receptor-Fcs were detected via anti-human Fc HRP conjugate with a chromogenic readout (i.e. A450). […] The SGE control is the ¹⁰FN3 domain as shown in SEQ ID NO: 1 with the integrin binding domain (RGD) substituted with amino acids SGE.
The protein populations resulting from the above selections are expressed in E. coli as His6 tagged proteins. The direct binding ELISA relies on the oriented capture of His6 tagged clones onto anti-His monoclonal antibody plates (EMD Biosciences, San Diego, Calif.) blocked with casein block buffer (Pierce, Rockford, Ill.) for 1-2 hrs. Typically a 1:50 dilution of HTPP material (0.2-2 ug) is captured for 1 hr, followed by incubation with 50 nM of the EGFR-Fc targets. Bound EGFR-Fcs are detected by incubation with anti-human HRP. Bound HRP conjugate is detected using the colorimetric substrate TMB (BD Biosciences, San Jose, Calif.) following the manufacturer's instructions.
In turn, B2 returned an A450 of 2.78 A450.
The same measure, in the same setting: then B3, with 1.9 A450; and B4, with 2.1 A450.
Still for that read-out and setting: then B5, with 2.61 A450.
For the molecule B6, the A450 came to 1.43 A450.
On the same count and under the same terms, under B7 stands 1.72 A450; under B8, 1.57 A450; under B9, 2.3 A450.
In turn, B10 registered an A450 of 1.87 A450.
Same read-out and setting: then B11, with 2.43 A450; and B12, with 1.42 A450; and B1, with 2.37 A450.
The molecule B13 registered an A450 of 0.213 A450.
The same measure, in the same setting: then B14, with 0.467 A450; and B15, with 1.4 A450; and B16, with 1.38 A450.
The same measure, in the same setting: then B17, with 1.95 A450; and B18, with 0.787 A450.
On the same count and under the same terms, under B19 stands 2.77 A450.
With B20, the A450 was 2.96 A450.
Same read-out and setting: under B21 stands 0.455 A450.

The next assay has as its target T1, EGFR on the surface of human A431 cells. Nature of the assay: cell-based competitive ligand binding assay on A431 cells, competitor Eu-EGF, time-resolved fluorescence (RFUs); parameter C of the four-parameter fit y = ((A - D)/(1 + (x/C)^B)) + D, x axis in nM; the legend calls C the IC50 but prints 258.258. On the procedure: as §1
On to B15, for which the IC50 was 258 nM.
